Assay results taken from patent US20080119412A1, “Polypeptides for Modulating Binding of Trp Channel Proteins and Trp- Associated Proteins” (NoNO Inc., priority 2003, published 2008).
Residues, ends and D or L forms follow the SMILES beside them. No end group written: not given here. *: point of attachment. Biotin = O=C1N[C@H]2[C@H](CS[C@H]2CCCCC(=O)*)N1

How the values were obtained:
ZO-1 d2 [1] = biological target: T1, ZO-1 d2 (Homo sapiens, UniProt Q07157, DEL264-264); test: G assay, peptide binding to GST-PDZ fusion (Table 11); settings: Table 11, titrations or binding assays
T1 construct: made in house; host or cells: E. coli (DH5alpha, BL21 or JM109)
T1 sequence (Q07157 with tags, fused parts or gaps DEL264-264): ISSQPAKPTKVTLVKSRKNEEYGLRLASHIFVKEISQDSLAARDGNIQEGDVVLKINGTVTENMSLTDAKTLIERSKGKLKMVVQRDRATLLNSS
Experimental: (§1) The binding of labeled PL peptide (e.g., as listed in TABLE 2 and TABLE 4) to this surface is then measured. In a preferred embodiment, the assay is carried out as follows:
(§2) (1) A PDZ-domain polypeptide is bound to a surface, e.g. a protein binding surface. In a preferred embodiment, a GST/PDZ fusion protein containing one or more PDZ domains is bound to a polystyrene 96-well plate. […] In one embodiment, the GST/PDZ fusion protein is bound via an anti-GST antibody that is coated onto the 96-well plate. Adequate binding to the plate can be achieved when:
(§3) (2) Biotinylated PL peptides are allowed to react with the surface by addition of 50 μl per well of 20 μM solution of the biotinylated peptide in PBS/BSA for 10 minutes at 4° C., followed by an additional 20 minute incubation at 25° C. The plate is washed 3 times with ice cold PBS.
(§4) (3) The binding of the biotinylated peptide to the GST/PDZ fusion protein surface can be detected using a variety of methods and detectors known to one of skill in the art. In one embodiment, 100 μl per well of 0.5 μg/ml streptavidin-horseradish peroxidase (HRP) conjugate dissolved in BSA/PBS is added and allowed to react for 20 minutes at 4° C. The plate is then washed 5 times with 50 mM Tris pH 8.0 containing 0.2% Tween 20, and developed by addition of 100 μl per well of HRP-substrate solution (TMB, Dako) for 20 minutes at room temperature (RT). The reaction of the HRP and its substrate is terminated by addition of 100 μl per well of 1 M sulfuric acid, and the optical density (O.D.) of each well of the plate is read at 450 um.
(§5) (4) Specific binding of a PL peptide and a PDZ domain polypeptide is determined by comparing the signal from the well(s) in which the PL peptide and PDZ domain polypeptide are combined, with the background signal(s). […] Typically a specific or selective reaction will be at least twice background signal, more typically more than 5 times background, and most typically 10 or more times the background signal. […] Correspondingly, a statistical test (e.g. a T-test) comparing repeated measurements of the signal with -repeated measurements of the background will result in a p-value <0.05, more typically a p-value <0.01, and most typically a p-value <0.001 or less. As noted, in an embodiment of the G assay, the signal from binding of a given PL peptide to immobilized (surface bound) GST polypeptide alone is one suitable negative control (sometimes referred to as B1). Because all measurement are done in multiples (i.e. at least duplicate) the arithmetic mean (or, equivalently, average.) of several measurements is used in determining the binding, and the standard error of the mean is used in determining the probable error in the measurement of the binding. The standard error of the mean of N measurements equals the square root of the following: the sum of the squares of the difference between each measurement and the mean, divided by the product of (N) and (N−1). Thus, in one embodiment, specific binding of the PDZ protein to the platebound peptide is determined by comparing the mean signal (“mean S”) and standard error of the signal (“SE”) for a particular PL-PDZ combination with the mean B1.

INADL d3 = biological target: T2, INADL d3 (Homo sapiens, UniProt Q8NI35); test: as above; settings: Table 11, titrations or binding assays
T2 construct: made in house; host or cells: E. coli (DH5alpha, BL21 or JM109)
T2 sequence (Q8NI35 with tags, fused parts or gaps): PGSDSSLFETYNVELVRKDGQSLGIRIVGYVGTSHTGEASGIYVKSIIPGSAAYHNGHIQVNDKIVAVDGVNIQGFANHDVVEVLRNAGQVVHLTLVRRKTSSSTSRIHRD
Experimental: as §1, §2, §3, §4, §5

ZO-1 d2 [2] = biological target: T1, ZO-1 d2; test: G3 assay titration, GST-PDZ fusion / biotinylated peptide; assay type: binding
Experimental: The G3 assay is identical to the G0 assay with the following exceptions. The peptides are typically present at 0.1 μM rather than 20 μM. The peptides are also pre-incubated with the HRP-streptavidin prior to adding to the assay plate. In the G0 assay, free peptide is incubated with the PDZ proteins prior to the addition of the HRP-streptavidin. Thus, for the G0 assay one can lose signal if the bound peptide dissociates from the PDZ protein prior to the addition of the HRP-streptavidin. In the G3 modified assay the HRP-streptavidin/peptide complex is added to the plate in one step, thus increasing the likelihood that all the bound peptide will be bound to HRP-streptavidin. The G3 modified assay increases the chance of observing weak interactions.
This example describes assays to identify binding between TRPM7 and PDZ domains. GST-PDZ fusions are produced that each contain an entire PDZ domain (or multiple PDZ domains), the collection encompassing approximately 90% of all PDZ domains identified in the human genome. (See Table 5 and Section V (PDZ Proteins and PL Protein Interactions Disclosure). Biotinylated peptide corresponding to 11 residues of Tat coupled to the C-terminal 9 amino acids of TRPM7 ([…]; SEQ ID NO:258) is synthesized and purified by HPLC.
• Nunc MaxiSorp 96 well Immuno-plate, Nunc • PBS pH 7.4 (phosphate buffered saline, 8 g NaCl, 0.29 g KCl, 1.44 g Na2HPO4, 0.24 g KH2PO4, add H2O to 1 liter and pH 7.4; 0.2 μm filter) • Assay Buffer: 2% BSA in PBS (20 g of bovine serum albumin per liter PBS, fraction V, ICN Biomedicals, cat#IC15142983 • Goat anti-GST polyclonal Ab, stock 5 mg/ml, stored at 4° C., Amersham Pharmacia cat#27-4577-01 • Dilute 1:1000 in PBS, final concentration 5 μg/ml. • HRP-Streptavidin, 2.5 mg/2 ml stock stored at 4° C., Zymed cat#43-4323, dilute 1:2000 into Assay buffer, final concentration of […] • Wash Buffer, PBS • Biotinylated peptides (HPLC purified, stock solution stored in −20° C. freezer) • GST-PRISM proteins (stock stored at −80° C., after 1st thaw store in −10° C. freezer) • TMB (3,3′,5,5′, teramethylbensidine), tablets, Sigma cat.#T5525 • Per plate, dissolve 1 tablet in 1 ml DMSO, add 9 ml Citrate/Phosphate buffer pH 5.4 and 2 μL H2O2 • 0.1 M H2SO4, Sigma cat.#S1526 • 12-w multichannel pipettor & tips • 50 ml reagent reservoirs, Costar#4870 • 50, 15 ml polypropylene conical tubes • Costar Transtar 96 Costar #7605 • Transtar 96 Cartridge Costar #7610 • Molecular Devices microplate reader (450 & 650 nm filters) with SoftMax Pro software *When using reagents stored at or 4° C. or −20° C., remove & keep on ice
• 1. Coat plate with 100 μl of 5 μg/ml anti-GST, overnight at 4° C. • 2. Dump contents of plate & out tap dry on paper towels • 3. Block with 200 μl Assay Buffer for 2 hrs at room temperature • 4. Prepare proteins at 5 μg/ml in Assay Buffer • 5. Wash 3× with cold PBS (4° C.), avoiding letting the plates dry out • 6. Add proteins at 50 μl per well, incubate 1 to 2 hrs at 4° C. • 7. Prepare peptides to desired concentration in Assay Buffer • 8. Wash 3× with cold PBS (4° C.), avoiding letting the plates dry out • 9. Add HRP-Streptavidin/peptide complex [prepared by incubating for 20 minutes at room temperature HRP-Streptavidin (1:2000) with the desired biotin-peptide concentration for 20 minutes at room temperature] at 50 μl per well on ice • 10. Place at room temperature for exactly 30 minutes • 11. Promptly wash 5× with PBS at room temperature • 12. Add 100 μl/well TMB substrate (write time on plate) • 13. Incubate in dark at room temperature for a maximum of 30 minutes • 14. Read plate at 25 minutes (650 nm), optional • 15. Stop reaction with 100 μl of 0.18 M H2SO4, 30 minutes after adding TMB • Take last reading at 450 nm soon after stopping reaction
The G3 assay was performed using 0.1 μM peptide representing 11 amino acids of Tat fused to the final 9 amino acids of TRPM7 ([…]; SEQ ID NO:258). […]

Molecule | PDZ domain bound (ZO-1 d2 [1]) | PDZ domain bound (INADL d3) | EC50 (ZO-1 d2 [2])
FHSKTAGANTTDKELEVLSL | ZO-1 D2 | INADL D3 | –
HDFRRAFKKILARGDRKRIV | ZO-1 D2 | INADL D3 | –
SSKSKSSEESQTFFGLYKL | ZO-1 D2 | INADL D3 | –
LAVLAYSITLVMLWSIWQYA | ZO-1 D2 | INADL D3 | –
YGRKKRRQRRRKLSSIESDV (Biotin-YGRKKRRQRRRKLSSIESDV) | ZO-1 D2 | – | –
HSCCNRARQERLQRRRETQV (Biotin-HSCCNRARQERLQRRRETQV; cysteine pairing not given here) | ZO-1 D2 | INADL D3 | –
HHLVAQRDIRQFQLQHWLAI | ZO-1 D2 | INADL D3 | –
LASKSAEEGKQIPDSLSTDL | – | INADL D3 | –
PSSRASSRASSRPRPDDLEI | ZO-1 D2 | – | –
SSSRRDSSWSETSEASYSGL | ZO-1 D2 | – | –
YGRKKRRQRRRARGDRKRIV (Biotin-YGRKKRRQRRRARGDRKRIV) | ZO-1 D2 | – | –
YGRKKRRQRRRAVAATSANL | ZO-1 D2 | INADL D3 | –
HAMNAAPRAMENAPALRTSH (Biotin-HAMNAAPRAMENAPALRTSH) | – | INADL D3 | –
RRRRRRRGNTTDKELEVLSL | ZO-1 D2 | – | –
YGRKKRRQRRRGASADSTQA | ZO-1 D2 | – | –
VPSDNIDSQGRNASTNDSLL (Biotin-VPSDNIDSQGRNASTNDSLL) | – | INADL D3 | –
RSGATIPLVGQDIIDLQTEV | – | INADL D3 | –
ENLELPVNPSSVVSERISSV (Biotin-ENLELPVNPSSVVSERISSV) | – | INADL D3 | –
CC(C)[C@H](NC(=O)[C@H](CCC(=O)O)NC(=O)[C@@H](NC(=O)[C@H](CCCCN)NC(=O)[C@H](CCCNC(=N)N)NC(=O)[C@H](CC(=O)O)NC(=O)[C@@H](NC(=O)[C@H](CCCNC(=N)N)NC(=O)[C@H](C)NC(=O)[C@H](CCCNC(=N)N)NC(=O)[C@H](CCCNC(=N)N)NC(=O)[C@H](CCCNC(=N)N)NC(=O)[C@H](CCC(N)=O)NC(=O)[C@H](CCCNC(=N)N)NC(=O)[C@H](CCCNC(=N)N)NC(=O)[C@H](CCCCN)NC(=O)[C@H](CCCCN)NC(=O)[C@H](CCCNC(=N)N)NC(=O)CNC(=O)[C@H](Cc1ccc(O)cc1)NC(=O)CCCC[C@@H]1SC[C@@H]2NC(=O)N[C@@H]21)[C@@H](C)O)C(C)C)C(=O)O [Peptide 1837] (Biotin-YGRKKRRQRRRARTDRKVEV-OH) | – | – | < 20 nM
TTNNNPNSAVNIKKIFTDV (Biotin-TTNNNPNSAVNIKKIFTDV) | ZO-1 D2 | INADL D3 | –
YGRKKRRQRRRARSDRGIWA (Biotin-YGRKKRRQRRRARSDRGIWA) | ZO-1 D2 | – | –
PIPAGGCTFSGIFPTLTSPL | – | INADL D3 | –
RELVDRGEVRQFTLRHWLKV | ZO-I D2 | INADL D3 | –
ILNSIQVMRAQMNQIQSVEV | ZO-1 D2 | INADL D3 | –
NYKLNTDHAGSNDNIALLVQ (Biotin-NYKLNTDHAGSNDNIALLVQ) | ZO-1 D2 | – | –
TQGFPGPATWRRISSLESEV | – | INADL D3 | –
CC[C@H](C)[C@H](NC(=O)[C@H](CCCCN)NC(=O)[C@H](CCCNC(=N)N)NC(=O)[C@H](CC(=O)O)NC(=O)CNC(=O)[C@H](CCCNC(=N)N)NC(=O)[C@H](C)NC(=O)[C@H](CCCNC(=N)N)NC(=O)[C@H](CCCNC(=N)N)NC(=O)[C@H](CCCNC(=N)N)NC(=O)[C@H](CCC(N)=O)NC(=O)[C@H](CCCNC(=N)N)NC(=O)[C@H](CCCNC(=N)N)NC(=O)[C@H](CCCCN)NC(=O)[C@H](CCCCN)NC(=O)[C@H](CCCNC(=N)N)NC(=O)CNC(=O)[C@H](Cc1ccc(O)cc1)NC(=O)CCCC[C@@H]1SC[C@@H]2NC(=O)N[C@@H]21)C(=O)N[C@@H](CCCNC(=N)N)C(=O)N[C@H](C(=O)O)C(C)C [Peptide 1836] (Biotin-YGRKKRRQRRRARGDRKIRV-OH) | – | – | < 10 nM

Molecule | PDZ domain bound (ZO-1 d2 [1]) | PDZ domain bound (INADL d3) | EC50 (ZO-1 d2 [2])
YGRKKRRQRRRSEGVPDLLV | ZO-1 D2 | – | –
LQFHRGSRAQSFLQTETSVI | – | INADL D3 | –
YGRKKRRQRRRARGDRKRWL (Biotin-YGRKKRRQRRRARGDRKRWL) | ZO-1 D2 | – | –
SLIGPVQKEYQRELGKLSSP | – | INADL D3 | –
LNSCSNRRVYKKMPSIESDV (Biotin-LNSCSNRRVYKKMPSIESDV) | ZO-I D2 | INADL D3 | –
YGRKKRRQRRRAVAAASANL (Biotin-YGRKKRRQRRRAVAAASANL) | ZO-1 D2 | – | –
YGRKKRRQRRRQDEEEGIWA (Biotin-YGRKKRRQRRRQDEEEGIWA) | ZO-1 D2 | – | –
QDFRRAFRRILARPWTQTAW | ZO-1 D2 | INADL D3 | –
DFRPSFKHILFRRARRGFRQ | ZO-1 D2 | INADL D3 | –
YVYSRVKNLNSSEGVPDLLV (Biotin-YVYSRVKNLNSSEGVPDLLV) | ZO-1 D2 | – | –
VHKVRNKFKAKCSLCRLYII (Biotin-VHKVRNKFKAKCSLCRLYII; cysteine pairing not given here) | ZO-1 D2 | INADL D3 | –
YGRKKRRQRRRDKELEVLSL | ZO-1 D2 | – | –
KHSRKSSSYSSSSTTVKTSY | ZO-1 D2 | INADL D3 | –
YGRKKRRQRRRNDNIALLVQ | ZO-1 D2 | – | –
YSATYSELEDPGEMSPPIDL (Biotin-YSATYSELEDPGEMSPPIDL) | – | INADL D3 | –
ELLQFCRTPNPALKNGQYWV | ZO-1 D2 | INADL D3 | –
STDNLVRPFMDTLASHQLYI | – | INADL D3 | –
GRWTGRAMSAWKPTRRETEV (Biotin-GRWTGRAMSAWKPTRRETEV) | – | INADL D3 | –
TEGNESSEATSPVNAIYSLA | ZO-1 D2 | – | –
YGRKKRRQRRRAVAATYSNL (Biotin-YGRKKRRQRRRAVAATYSNL) | ZO-1 D2 | – | –
KKKKQPGNSTKESESTNSVRLML | ZO-1 D2 | INADL D3 | –
PGQPPKVKSEFNSYSLTGYV | – | INADL D3 | –
VDPNSPAAKKKYVSYNNLVI (Biotin-VDPNSPAAKKKYVSYNNLVI) | ZO-1 D2 | INADL D3 | –
YGRKKRRQRRRARGDRKRWA (Biotin-YGRKKRRQRRRARGDRKRWA) | ZO-1 D2 | – | –
RRRRRRRGTNPAVAATSANL | ZO-1 D2 | – | –
YGRKKRRQRRREYLGLDVPV | ZO-1 D2 | INADL D3 | –
